In one experiment the test system is GST-ZZ122-175^N132D. Briefly: GST-ZZ122-175^N132D pulldown from HeLa lysates (MG132 plus TG). The note with it: HeLa lysate, immunoblot. Type of experiment: binding, human. The source says: Using these lysates and purified GST tagged ZZ122-175^N132D (Supplementary Fig. 4A) immobilized on glutathione resin, we performed pulldown assays. […] In addition to pulling down R-BiP and R-CRT, GST-ZZ122-175^N132D was able to capture polyubiquitinated proteins, which were also disrupted by the D129A mutation and RA dipeptide competition (Supplementary Fig. 4B). This was expected because arginylated proteins are known to be ubiquitinated by E3 ligases containing a UBR box leading to their proteasomal degradation.
Fig. 4 ZZ122-175 ^N132D is capable of capturing known arginylated proteins in cells. a Western blot analysis to visualize arginylated BiP and CRT. […] N-terminally arginylated BiP and CRT were detected by immunoblotting using anti R-BiP and R-CRT antibodies. b GST pulldown assays to test the ability of wild type (WT) and N132D GST-ZZ in capturing cellular R-BiP and R-CRT. […] Pulled down R-BiP and R-CRT were detected using anti R-BiP and R-CRT antibodies. c Schematic drawing illustrating R-catcher. […] R-catcher bound arginylated proteins were detected by immunoblotting using anti-Myc or Flag antibody. e R-catcher pulldown assay to capture R-BiP and R-CRT induced in HeLa cells stimulated with MG132 plus TG in the absence or presence of 20 mM dipeptides TEXT PRINTED IN THE PICTURE: (C) R-catcher: ~ 9 kDa

For experiment [1], the system named is HeLa cell extracts stimulated with MG132 plus TG. Briefly: Large-scale R-catcher pulldown coupled to silver staining and LC-MS/MS. Also noted: species or system human. Particulars: LC-MS/MS working list. As for the experimental part:
For large-scale R-catcher pulldown assays, HeLa cells were treated with 5 µM MG132 and 100 nM thapsigargin for 24 h. Cells were lysed in hypotonic buffer and 10 mg total was incubated with 750 µl R-catcher-sepharose beads for 3 h at 4 °C after pre-clearing with D129A mutant R-catcher-sepharose beads for 3 h at 4 °C. After three washes with binding buffer, bound proteins were eluted with binding buffer containing 20 mM D-biotin. To remove R-catcher, the eluent was dialyzed using 20 kDa cut-off dialysis membrane in binding buffer containing 3.5 M MgCl2 overnight followed by another overnight dialysis in distilled-deionized water. The dialyzed eluent was lyophilized overnight and dried powder was dissolved in 100 µl LC/MS solubilizer for silver staining and mass spectrometry analysis.
Protein samples solubilized in Invitrosol LC/MS solubilizer (Invitrogen) as following by manufacturer protocol. For removal of incompatible buffer components, protein samples filtrate with 10 K MW ultrafilter for complete digestion. […]
Peptides were analyzed using a LC–MS/MS system consisting of an Easy nLC 1000 (Thermo Fisher scientific) and an Orbitrap Fusion Lumos mass spectrometer (Thermo Fisher Scientific) equipped with a nano-electrospray source (EASY-Spray Sources, Thermo Fisher Scientific). […]
MS/MS spectra were analyzed using the following software analysis protocols with the Uniprot human DB (2019). […]

Another experiment concerns R-catcher. Briefly: Small-scale R-catcher pulldown of known arginylated proteins. It is filed as binding, human. Particulars: HeLa, MG132 plus TG, Fig. 4e. As to the method: For small-scale R-catcher pull-down assays, 300 µg of purified R-catcher was conjugated with 120 µl of Strep-Tactin sepharose resin by incubating overnight at 4 °C. To test R-catcher’s ability to capture known arginylated proteins, such as R-BiP, R-PDI, R-nsP4 and R-RGS4, plasmids encoding Ub-X-(BiP, PDI and nsP4) or MX-RGS4 (X = Arg or Val) were transiently transfected into HEK293 cells. After 24 h, cells were treated with 10 µM MG132 and 100 nM thapsigargin for another 24 h. Cells were harvested and lysed in hypotonic buffer and 300 µg total protein was incubate with 25 µl R-catcher-sepharose resin in binding buffer (20 mM HEPES pH 7.9, 0.05% Tween 20, 10% glycerol, 0.2 M KCl, protease inhibitor and phosphatase inhibitor) for 3 h with gentle rotation at 4 °C. After three washes with binding buffer, bound proteins were dissociated with 2 × SDS sample buffer and boiling at 100 °C and subjected to immunoblotting using anti-myc or flag antibodies.

B1: R-CRT: Nt-arginylated CRT (protein)
chain: REPAVYFKEQFLDGDGWTSRWIESKHKSDFGKFVLSSGKFYGDEEKDKGLQTSQDARFYALSASFEPFSNKGQTLVVQFTVKHEQNIDCGGGYVKLFPNSLDQTDMHGDSEYNIMFGPDICGPGTKKVHVIFNYKGKNVLINKDIRCKDDEFTHLYTLIVRPDNTYEVKIDNSQVESGSLEDDWDFLPPKKIKDPDASKPEDWDERAKIDDPTDSKPEDWDKPEHIPDPDAKKPEDWDEEMDGEWEPPVIQNPEYKGEWKPRQIDNPDYKGTWIHPEIDNPEYSPDPSIYAYDNFGVLGLDLWQVKSGTIFDNFLITNDEAYAEEFGNETWGVTKAAEKQMKDKQDEEQRLKEEEEDKKRKEEEEAEDKEDDEDKDEDEEDEEDKEEDEEEDVPGQAKDEL
For B1, the “pulldown by GST-ZZ122-175^N132D” value with GST-ZZ122-175^N132D was “efficiently pull down”.

B2: CRT: ER chaperone calreticulin, arginylated (protein)
chain: B1 chain
For the molecule B2, the “presence in R-catcher working list” value in experiment [1] is given as “among the known arginylated proteins”. Moreover, in the experiment on R-catcher, the “pulldown by R-catcher, endogenous” value is on record as “could pulldown”.

For the origin of these results see PMC8038991, “R-catcher, a potent molecular tool to unveil the arginylome” (Cellular and Molecular Life Sciences: CMLS, 2021).
